Results: the DeepSol protein solubility set

experiment: soluble on expression in E. coli; label from the status in PepcDB or PDB records

| Sequence | soluble on expression in E. coli |
| --- | --- |
| MAAAAAGAGSGPWAAQEKQFPPALLSFFIYNPRFGPREGQEENKILFYHPNEVEKNEKIRNVGLCEAIVQFTRTFSPSKPAKSLHTQKNRQFFNEPEENFWMVMVVRNPIIEKQSKDGKPVIEYQEEELLDKVYSSVLRQCYSMYKLFNGTFLKAMEDGGVKLLKERLEKFFHRYLQTLHLQSCDLLDIFGGISFFPLDKMTYLKIQSFINRMEESLNIVKYTAFLYNDQLIWSGLEQDDMRILYKYLTTSLFPRHIEPELAGRDSPIRAEMPGNLQHYGRFLTGPLNLNDPDAKCRFPKIFVNTDDTYEELHLIVYKAMSAAVCFMIDASVHPTLDFCRRLDSIVGPQLTVLASDICEQFNINKRMSGSEKEPQFKFIYFNHMNLAEKSTVHMRKTPSVSLTSVHPDLMKILGDINSDFTRVDEDEEIIVKAMSDYWVVGKKSDRRELYVILNQKNANLIEVNEEVKKLCATQFNNIFFLD | soluble |
| MTEKLAVFTGKLAEAGVLNETQPLSMRLHLENIQAESDPESIVPLFSHGVILNILVEQLEESIPLSHLKKGTKVRFTVVGLPPMTMSIPPHVGGQAIELIEEI | not soluble |
| MGLLVLGTPLDWPESKKYCDYVRENGIMQFLHMYDTYISKKQDVLLWGDEIECIVVSMDDKSKKARVSLRQEDILNALGKYEETFRHVDFGPVYAALRNETCPKKIDAILSEVAKNPADYVERIGGNSNKDTIEITSSTKPHAQNAVPTFHPEYGRYMLESTPGAPYGSTLKDFTFVEYNMRLRRKIIENHLLPNELPLTITNFFRLGTPGFTDPEVEANGAISRSFFLPDDVINTHVRFPTLTANIRQRRGRKVAMNVPIFFDKNTIKPFHDPTVPWDRNLFPEDANARDGAALDNHIYMDSMGFGMGCCCLQITFQAKSCDEARLLYDQLTPITPLMLALSAGTPAFRGYLADQDCRWNVIAGAVDDRTEEEMKTVPKSRYDSVDLYISNDKRNLPEYNDVPVVINQDCYDKLIKDCIDERLAKHMAHIFSRDPLVIFSDSILQDNSVSNAHFENLNSTNWQSMRFKPPPPGSDIGWRVEFRSMEIQITDFENAAYSIFVVMLSRAILSFNLNLYMPISLVDENMKAAHARDAIHRKKFWFRCNPFPDASTDDESGQFRQLTIDELFNGEHRENGFPGLITIVRSYLYSCNPDAKTICLIERYIRLISQRANGQCLTAASWIRNFITTHPSYKQDSVVNDEINYDLIRRIAKIVDGDYDDTLLGKCS | soluble |
| VVNKKIAYLGDEKPITIWTSLDNVTVIQLEKDETISYITTGFNKGWSIVPNSNHIFIQPKSVKSNLMFEKEAVNFALMTRDYQEFLKTKKLIVDAPDPKELEEQKKALEKEKEAKEQAQKAQKDKREKRKEERAKNRANLENLTNAMSNPQNLSNNKNLSEFIKQQRENELDQMERLEDMQEQAQANALKQIEELNKKQAEETIKQRAKDKINIKTDKPQKSPEDNSIELSPSDSAWRTNLVVRTNKALYQFILRIAQKDNFASAYLTVKLEYPQRHEVSSVIEEELKKREEAKRQKELIKQENLNTTAYINRVMMASNEQIINKEKIREEKQKIILDQAKALETQYVHNALKRNPVPRNYNYYQAPEKRSKHIMPSEIFDDGTFTYFGFKNITLQPAIFVVQPDGKLSMTDAAIDPNMTNSGLRWYRVNEIAEKFKLIKDKALVTVINKG | not soluble |
| MGSDKIHHHHHHMHFDIKDLKLFLAISEEGSITRGAEKTYMSAASGSVRIRNLEQSINLRLLYRSSKGITLSSAGETFKHHASLIVNQMEMLRSDMQEHVKGIKGHVRIFSSITAIAEYLPPLLSHFLTLYNDVNIDLREYPSPEIVRSVIEGKTDLGIVAGNITTDNLEILPFRTDRLVLITATDHPFADRKSVTFHELIQYEQISLPEGTGMFEFIRKKAELVPSKLKIRIQVGNFETFCRMVEAKVGIGIMPHSAASRLRQLHEFSIIDLDEFWSLRKLQICARSFDKLPGFTQKLVTMLTAQTE | not soluble |
| MAHHHHHHMVRPEYSSPPEFFYNEEEAKKYVRNSRIRDIQSQMTERAMELLLLPDSPCLLLDIGCGSGISGMTLNELDHFWIGIDISIHMLRLQNEAHLGGDMLLADMGKLMRFQPCIFDGVVSISALQWLCNWDKKDESPVSRISTFFKWLYNCLKRGARAVFQFYPDSPEQIKTLTNFAMKAGFGGGVVVDFPNSAKSKKYYLCLWAGSSLVATMPTALNDEEENIISHERRKFNKKTKKQIKKNKEWILKKKDQRRMKGLDVKRDSKYTGRKRKGRF | not soluble |
| MTFFFVFLALLSLLAFVIRKAHRNTYEAVLHKVQVGRSEDGDGAIRILQLSDLHLEKLSITPDDLYEKLKEEEIDLIALTGDFLDREESIAKLGPYLAALNALKPTYGMYAVFGNHDYVLQGEPFARLKATLEAHGCVVLQNETKTITVNGQTVNIIGIDDFYTGRSDIEKAYAGVKDGISLVLTHDPDIVPHMKDYHFDYLLSGHFHGGQIHWPKPYHLAKMSKTLTERNMIKGYHEWEGKPFYINEGLGQTGVNIRIGSKPEVTLHLLALPSRREAVKAV | not soluble |
| MAKKPTALIILDGFANRESEHGNAVKLANKPNFDRYYNKYPTTQIEASGLDVGLPEGQMGNSEVGHMNIGAGRIVYQSLTRINKSIEDGDFFENDVLNNAIAHVNSHDSALHIFGLLSDGGVHSHYKHLFALLELAKKQGVEKVYVHAFLDGRDVDQKSALKYIEETEAKFNELGIGQFASVSGRYYAMDRDKRWEREEKAYNAIRNFDAPTYATAKEGVEASYNEGLTDEFVVPFIVENQNDGVNDGDAVIFYNFRPDRAAQLSEIFANRAFEGFKVEQVKDLFYATFTKYNDNIDAAIVFEKVDLNNTIGEIAQNNNLTQLRIAETEKYPHVTYFMSGGRNEEFKGERRRLIDSPKVATYDLKPEMSAYEVKDALLEELNKGDLDLIILNFANPDMVGHSGMLEPTIKAIEAVDECLGEVVDKILDMDGYAIITADHGNSDQVLTDDDQPMTTHTTNPVPVIVTKEGVTLRETGRLGDLAPTLLDLLNVEQPEDMTGESLIKH | not soluble |
| MRPIPEGYEAVFETVVTPEMTVRFEELGPVHPVYATYWMVKHMELAGRKIILPFLEEGEEGIGSYVEARHLASALPGMRVRVVARHEKTEGNRVYARVEAYNELGDLIGVGRTEQVILPKAKVEALFRRLKERWEAERSPS | soluble |
| MPFIDIQSKVGINIDKWLLLQSSKQPYRWTTSCHAFEKEWVECSHGIGQIRAQKECKLEYEDFYECMHRNKLRQRLQAIQEQKKKLEKEGVYKAPDFTKDSNTP | not soluble |
| MAVSLVKGGNVSLTKEAPTMNIAVVGLGWDARVTDGSEFDLDASVFMVGENGKVLSDQHFIFFNNKVSPCGSVVHQGDNRTGAGDGDDEQIKIDLKKVPADVKKIIFSVTIYDAEARKQNFGMVSNSFMRVVNEDNSAEIARFDLSEDASTETAMIFGELYRNNDEWKFKAVGQGFAGGLSALASQHGVSV | not soluble |
| MGSDKIHHHHHHMTEQITPQAFLAGRLLLESEVPSEFLTNKDVITEPSIITENGRYHCRRCCNEHRELFATAPCAWCGNRHCIYCRNCLMLGRVTACRKLVRWKGEPYAFPSHSNVLQWKGTLSHGQRHASLQAVQYWKQKEDHIIWAVCGSGKTEIVFDAVAQSLANGERILLATPRVDVVKELYPRFKQAFPSITITALYGDSPSVFHPAQLVIATTHQTFRFKKAFDFVIVDEVDAFPFSCDQSLQLSVNEARRPLAPILYLSATPSRSLLEQNKRITKVSTRYHGHPLPLPSFVWIGNWRKTVMRRKLPSKLVTWLEKHHRKPVFLFVPSIPVLEQVSAALKQLGYIHDAVHAEDPHRHEKVTRFRDGVTKLLVTTTILERGVTVPRVQVAVLGAEHSVFSEAALVQISGRVGRSHRHPTGDIAFFHYGVSKAMKRCRQQLQQMNREGF | not soluble |
| MRGSHSGAQGLLAAQKARGLFKDFFPETGTKIELPELFDRGTASFPQTIYCGFDPTADSLHVGHLLALLGLFHLQRAGHNVIALVGGATARLGDPSGRTKEREALETERVRANARALRLGLEALAANHQQLFTDGRSWGSFTVLDNSAWYQKQHLVDFLAAVGGHFRMGTLLSRQSVQLRLKSPEGMSLAEFFYQVLQAYDFYYLFQRYGCRVQLGGSDQLGNIMSGYEFINKLTGEDVFGITVPLITSTTGAKLGKSAGNAVWLNRDKTSPFELYQFFVRQPDDSVERYLKLFTFLPLPEIDHIMQLHVKEPERRGPQKRLAAEVTKLVHGREGLDSAKRCTQALYHRSHHHHHH | soluble |
| MKCKFCSREAYIKIHYPKMYLCEEHFKEYFERKVSRTIERYKLLTKDERILVAVSGGKDSAVTAYVLKKLGYNIECLHINLGISGYSEKSEEYAKKQCKLIGAPLHIVRIKEILGYGIGEVKTRRPPCSYCGLTKRYIMNKFAYDNGFDAIATGHNLDDEASFLLNNILHWNTEYLAKGGPILPQQGKFIKKVKPLYEVTEREVVAYALAVGLEYIVEECPYARGATTLDMKGVLNELEEKRPGTKFNFVRGYLKKKKLFEPEIKEKEIKECKICRMPSSGDICAFCKFWGLKKEINFKVSSTDEEPFGP | soluble |
| MSLEMEHINENTIRVLIGNEDLADRGITFLDLLGNHKDVENFFYSILEEVDVEDEFQGSEAVTFQVLPKNDGLELFISKNVAMDDLSSLEGLSEVNADVSELIRKQIEADKAAADELDEMEATDETNRNVIFELDNFEAMIQLSKEVFMQSVLTNLYTYNDRYYLQVLFLTDELEKTNVDNEIAQILEFAHKTTVTQDTLVEYGTCIMERSALELTRYYFNDEGHHHHHH | soluble |
| MGSDKIHHHHHHMGFDLDVEKKKENRNIPQANNLKIKVIGVGGAGNNAINRMIEIGIHGVEFVAVNTDLQVLEASNADVKIQIGENITRGLGAGGRPEIGEQAALESEEKIREVLQDTHMVFITAGFGGGTGTGASPVIAKIAKEMGILTVAIVTTPFYFEGPERLKKAIEGLKKLRKHVDTLIKISNNKLMEELPRDVKIKDAFLKADETLHQGVKGISELITKRGYINLDFADIESVMKDAGAAILGIGVGKGEHRAREAAKKAMESKLIEHPVENASSIVFNITAPSNIRMEEVHEAAMIIRQNSSEDADVKFGLIFDDEVPDDEIRVIFIATRFPDEDKILFPEGDIPAIYRYGLEGLL | not soluble |
| NDKYMLLVFGRNGCSYCERFKKDLKNVKELRDYIKEHFSAYYVNISYSKEHDFKVGDKNNEKEIKMSTEELAQIYAVQSTPTIVLSDKTGKTIYELPGYMPSTQFLAVLEFIGDGKYQDTKDDEDLTKKLKAYIKYKTNLSKSKSN | not soluble |
| MEVEVGQIVNTHGIKGEVKVKSNSDFTETRFQPGEQLLVKHNNTEIVYTVASYRIHKGFHMLRFEGINNINEIEHLKGDYIYQERDHQDIELGEHEYYYSDIIGCTVFKDDDTPIGRVINIFETGANDVWVVKGEKEYLIPYIEDVVKDIDIETKTIKITPMEGLLDLEHHHHHH | soluble |
| MGSDKIHHHHHHMHARSLDKKPLDRQASIDSALRTVATEQAGIAALAEALENGLAAPFAQAVDMISKIEGRLIVTGVGKSGHIGSKIAATLASTGTPAFFVHPVEANHGDLGMIAKDDAIIAISWSGESKEMLGIVAYSRRFSIPLIAVTSGETSALARAADVVLLLPRTPEACPHGLAPTTSTLLQLVIGDALAIALLEARGFTPDHFRTFHPGGQLGANLTMVSEIMRVGDQMPLAVLGTKMPEAVMTLSQKKVGCVLIVDANGELAGIITDGDVARNLHRNLADVIVDEVMTRTPKTVDPQTLAGTAIALLNEHNIGALVVTRNNMPLGVVHFHDLLRIGAA | not soluble |
| MGSDKIHHHHHHMSSNALYTDLSGYYDLMCSDINYQQQSASIHRLHQFLGNNGKQHLDLACGTGPHVRHFIDLGYQCSGLDINQPMLDMAMRRCPEAQFNLQDMTAFYLEERVDLITCFLYSIHYSACIERLKSCIASVHSALNDGGLFCFNTVDKHRIDNTASVKHFAEFDGSHFAFESGWHYSGQGEKQSLKLSIAKSRLPFTEVSASPLPVSDMKGLGSLEAGLHAAGLQEVGLQELHSIEQWQDQHAMVATSFTELQELLAPYFEVHVFEHDYERIVPWDLASGNALFVCVKI | not soluble |
